# Assay results taken from patent US20200216494A1 (ROYAL MELBOURNE INSTITUTE OF TECHNOLOGY, published 2020).
# T1: NOX2 (catalytic subunit of NOX2 NADPH oxidase) (mouse, UniProt Q61093 2-570)
# T1 construct: whole, on cells; Endogenous protein in mouse alveolar macrophages, BMDMs and RAW264.7 cells; also called gp91phox; CYBB
# T1 sequence (looked up): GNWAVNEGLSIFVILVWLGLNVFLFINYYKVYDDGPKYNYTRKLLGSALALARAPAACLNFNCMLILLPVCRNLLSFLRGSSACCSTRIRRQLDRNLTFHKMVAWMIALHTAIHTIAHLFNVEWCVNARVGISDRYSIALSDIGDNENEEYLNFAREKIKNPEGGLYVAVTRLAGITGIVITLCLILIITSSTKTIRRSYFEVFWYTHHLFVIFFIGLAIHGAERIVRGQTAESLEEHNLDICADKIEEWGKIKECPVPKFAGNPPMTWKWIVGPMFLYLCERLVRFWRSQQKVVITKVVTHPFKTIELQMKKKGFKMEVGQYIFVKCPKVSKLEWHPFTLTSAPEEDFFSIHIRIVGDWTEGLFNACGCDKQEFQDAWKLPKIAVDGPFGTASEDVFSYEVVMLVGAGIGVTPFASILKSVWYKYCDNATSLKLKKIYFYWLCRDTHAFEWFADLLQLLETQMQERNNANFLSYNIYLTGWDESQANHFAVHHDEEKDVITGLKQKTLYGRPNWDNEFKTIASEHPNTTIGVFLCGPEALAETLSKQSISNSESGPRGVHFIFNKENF
# Biological target: T1, NOX2 (catalytic subunit of NOX2 NADPH …)
# Assay: confocal immunofluorescence of NOX2 and p47phox association (NOX2 oxidase assembly) in HKx31-infected mouse macrophages
binder,measurement,value
"p47phox regulatory subunit of NOX2 oxidase (other, mouse, UniProt Q09014 1-390, looked up, whole, on cells; Cytosolic subunit, endogenous in the cells) MGDTFIRHIALLGFEKRFIPSQHYVYMFLVKWQDLSEKVVYRKFTEIYEFHKMLKEMFPIEAGEIHTENRVIPHLPAPRWFDGQRAAESRQGTLTEYFNGLMGLPVKISRCPHLLDFFKVRPDDLKLPTDSQAKKPETYLVPKDGKNNVADITGPIILQTYRAIADYEKSSGTEMTVATGDVVDVVEKSESGWWFCQMKTKRGWVPASYLEPLDSPDEAEDPDPNYAGEPYVTIKAYAAVEEDEMSLSEGEAIEVIHKLLDGWWVVRKGDITGYFPSMYLQKAGEEITQAQRQIRGRGAPPRRSTIRNAQSIHQRSRKRLSQDTYRRNSVRFLQQRRRPGRPGPLSTDGTKDNPSTPRVKPQPAVPPRPSSDLILHRCTESTKRKLTSAV",binding result,binds
